Source: paper PMC8764033 (2022)
Several values for one entry are separate records, joined by “and”; a condition that tells them apart may be missing. Equal values may be shown once. Where no end group is shown, it is not given here. Cy5 = cyanine-5 fluorescent label

T1: WD40 domain of Cdh1 from Saccharomyces cerevisiae (aa 241–550), for anisotropy (S. cerevisiae, UniProt P53197 241-550)
T1 chain: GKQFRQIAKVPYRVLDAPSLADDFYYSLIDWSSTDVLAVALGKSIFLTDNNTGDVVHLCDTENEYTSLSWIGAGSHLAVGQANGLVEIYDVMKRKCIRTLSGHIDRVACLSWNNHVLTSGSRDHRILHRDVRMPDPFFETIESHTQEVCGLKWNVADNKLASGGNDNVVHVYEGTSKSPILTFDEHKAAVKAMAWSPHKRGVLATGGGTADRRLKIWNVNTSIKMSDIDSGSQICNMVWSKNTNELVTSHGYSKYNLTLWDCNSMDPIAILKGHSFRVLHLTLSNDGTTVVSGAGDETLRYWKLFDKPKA

T2: WD40 domain of human Cdc20 (aa 162–484), for anisotropy (human, UniProt Q12834 162-484)
T2 chain: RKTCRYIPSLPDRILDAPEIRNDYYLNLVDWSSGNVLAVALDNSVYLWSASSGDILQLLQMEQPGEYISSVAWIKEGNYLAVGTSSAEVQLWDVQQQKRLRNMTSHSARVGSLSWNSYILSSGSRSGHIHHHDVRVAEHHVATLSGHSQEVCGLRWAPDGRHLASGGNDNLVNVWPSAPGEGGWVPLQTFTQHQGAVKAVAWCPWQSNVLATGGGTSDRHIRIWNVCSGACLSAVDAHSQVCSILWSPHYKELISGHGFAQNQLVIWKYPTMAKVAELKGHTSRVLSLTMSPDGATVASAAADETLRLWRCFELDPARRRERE


Legend:
[1] = biological target: T1, WD40 domain of Cdh1 from Saccharomyces …; experiment: FP
[2] = biological target: T2, WD40 domain of human Cdc20 (aa …); experiment: FP
[3] = biological target: T1, WD40 domain of Cdh1 from Saccharomyces …; experiment: FP; + unlabeled Hsl1 KEN peptide (100 uM)
[4] = biological target: T1, WD40 domain of Cdh1 from Saccharomyces …; experiment: FP; + unlabeled Hsl1 KEN mutant peptide (100 uM)
[5] = biological target: T1, WD40 domain of Cdh1 from Saccharomyces …; experiment: FP; + unlabeled Hsl1 D box peptide (100 uM)
[6] = biological target: T1, WD40 domain of Cdh1 from Saccharomyces …; experiment: FP; + unlabeled Hsl1 D box mutant peptide (100 uM)

| Kd [1] [µM] | Binder | also measured |
| --- | --- | --- |
| > 30.6 | QDSKPRRALTDVPVNNNPLSQK-Cy5 [Cy5-labeled Clb5 D box peptide] | – |
| 2.9 | EQKPKRAALSDITNSFNKMNK-Cy5 [Cy5-labeled Hsl1 D box peptide] | Kd [2]: 2.5 µM; Kd [3]: 1.1 µM and 1.2 µM; Kd [4]: 2.9 µM |
| > 30.6 | AQQQGRLPLAAKDNNRSKSFIK-Cy5 [Cy5-labeled ySecurin D box peptide] | – |
| 22 | GVSTNKENEGPEYPTKIEK-Cy5 [Cy5-labeled Hsl1 KEN peptide] | Kd [5]: 3.4 µM; Kd [6]: 16 µM and 11 µM |
| > 30.6 | EQKPKAAAASDITASFNKMNK-Cy5 [Cy5-labeled Hsl1 D box mutant peptide] | – |
